Measurements from US20240294931A1 (VIB VZW, published 2024).

Assays:
[1] = biological target: T1, Arabidopsis thaliana PHYTOCHROME A SIGNAL TRANSDUCTION1 (Arabidopsis thaliana, UniProt Q9LDL7 1-490); assay: yeast two-hybrid
T1 construct: 490 aa; Y2H fusion domains not described; also called PAT1; At5g48150
T1 sequence: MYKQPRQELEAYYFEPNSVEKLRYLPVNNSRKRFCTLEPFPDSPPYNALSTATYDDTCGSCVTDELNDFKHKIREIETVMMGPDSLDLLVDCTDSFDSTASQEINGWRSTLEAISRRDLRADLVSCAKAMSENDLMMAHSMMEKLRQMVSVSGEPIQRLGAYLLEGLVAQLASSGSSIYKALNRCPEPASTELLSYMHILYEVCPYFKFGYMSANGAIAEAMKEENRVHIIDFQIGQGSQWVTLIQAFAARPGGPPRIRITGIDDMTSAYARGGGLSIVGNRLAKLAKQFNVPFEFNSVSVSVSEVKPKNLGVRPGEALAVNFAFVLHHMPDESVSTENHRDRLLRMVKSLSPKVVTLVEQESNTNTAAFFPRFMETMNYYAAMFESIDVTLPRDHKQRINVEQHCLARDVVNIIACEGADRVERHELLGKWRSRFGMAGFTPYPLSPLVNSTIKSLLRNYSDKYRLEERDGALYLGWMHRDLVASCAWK

[2] = biological target: T2, Arabidopsis thaliana SCARECROW-LIKE 21 (Arabidopsis thaliana, UniProt Q9S7H5 1-413); assay: yeast two-hybrid with ERF115 fragments
T2 construct: Y2H fusion domains not described; Also the endogenous protein co-purifying in the ERF115 TAP; also called SCL21; AT2G04890
T2 sequence: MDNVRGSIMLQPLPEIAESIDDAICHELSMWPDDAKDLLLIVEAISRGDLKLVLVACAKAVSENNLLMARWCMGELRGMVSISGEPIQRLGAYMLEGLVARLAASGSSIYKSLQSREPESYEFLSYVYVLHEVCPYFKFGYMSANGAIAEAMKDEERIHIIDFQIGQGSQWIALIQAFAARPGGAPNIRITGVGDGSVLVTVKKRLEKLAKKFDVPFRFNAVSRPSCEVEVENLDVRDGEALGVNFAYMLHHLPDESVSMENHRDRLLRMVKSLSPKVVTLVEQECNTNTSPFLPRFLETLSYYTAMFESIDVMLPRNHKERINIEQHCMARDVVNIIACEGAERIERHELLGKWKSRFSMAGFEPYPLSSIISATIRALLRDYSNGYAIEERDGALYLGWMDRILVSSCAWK
Experimental: FIGS. 1A-1L. ERF115 interacts with SCL21 and PAT1. FIG. 1A, Protein interactions identified through TAP using ERF115 and SCL21 as bait. Arrowheads point towards co-purifying proteins. FIG. 1B, Yeast two-hybrid interaction of ERF115 full length and fragments with SCL21 and PAT1. Growth was verified on control medium (+HIS) or selective medium (−HIS) supplemented with 15 mM 3-Amino-1,2,4-triazole (3-AT), using β-glucuronidase (GUS) as a negative control. FIG. 1C, Yeast two-hybrid interaction of ERF2 and ERF6 without (−) or fused to the conserved ERF115 interaction motif (+) with SCL21. The assay was performed similar to (FIG. 1B). […], Root tips expressing ERF115 (dots) (FIGS. 1D and 1E), SCL21 (no expression visible) (FIGS. 1F and 1G), and PAT1 (dots) (FIGS. 1H And 1I) under control conditions (FIGS. 1D, 1F, and 1H) or treated with bleomycin (FIGS. 1E, 1G, and 1I). Arrowheads indicate the quiescent center (QC). Cell walls are counterstained with propidium iodide (PI). Bars=50 μm. FIGS. 1J-1L, Expression of PAT1 (green) and ERF115 (red) in root tips 10 h15 to 11 h30 after recovery from bleomycin treatment. […] Cell walls are counterstained (white) by SCRI Renaissance 2200 dye. Bars=25 μm.

binding result [1]: binds | binding result [2]: binds
B1: Arabidopsis thaliana ERF115 A-fragment (N-terminal sequence that precedes the APETALA2 domain) (other)
chain: MANSGNYGKRPFRGDESDEKKEADDDENIFPFFSARSQYDMRAMVSALTQVIGNQSSSHDNNQHQPVVYNQQDPNPPAPPTQDQGLLRK
notes: Y2H fusion domains not described
